Eleven substances from patent publication US20160052994A1 can be followed below.

In experiment [1] the target is Type I collagen (Nitta Gelatin Inc., type I-A: porcine origin) (porcine). Put plainly: solid-phase binding assay on coated type I collagen, detection with anti-FLAG antibody M2.
The target is the same in experiment [2]. Briefly: solid-phase binding assay on coated type I collagen, detection with anti-laminin α5 antibody 5D6.
Experiment [3] has as its target Gelatin (Sigma, G1890-100G: porcine origin) (porcine). Put plainly: solid-phase binding assay on coated gelatin, detection with anti-laminin α5 antibody 5D6.

Turning to “CBD-fused laminin 211E8 fragment 211βγ (from UniProt P24043 1900-2722)”, the fold binding activity against the form with a single CBD (211β) in experiment [1] is more than 10 fold.

For “CBD-fused laminin 111E8 fragment 111βγ (from UniProt P25391 1878-2700)”, the fold binding activity against the form with a single CBD (111β) in experiment [1] was more than 10 fold. For “CBD-fused laminin 421E8 fragment 421βγ (from UniProt Q16363 629-1449)”, the fold binding activity against the form with a single CBD (421β) in experiment [1] was more than 10 fold.

In experiment [2], “CBD-fused laminin 511E8 fragment CBD-E8(βγ) (from UniProt O15230 2534-3327)” gave a concentration at which the binding activity reached saturation of 10 nM and a fold binding activity against the forms with a single CBD (monovalent forms) of 10 fold. Also, the fold binding activity against the monovalent forms in experiment [3] stood at 3 fold.

“CBD-fused laminin 121E8 fragment 121βγ (from UniProt P25391 1878-2700)” came in with a fold binding activity against the form with a single CBD (121β) in experiment [1] of more than 10 fold. Consider “CBD-fused laminin 411E8 fragment 411βγ (from UniProt Q16363 629-1449)”, for which the fold binding activity against the form with a single CBD (411β) in experiment [1] was more than 10 fold. As for “CBD-fused laminin 321E8 fragment 321βγ (from UniProt Q16787 579-1364)”, the fold binding activity against the form with a single CBD (321β) in experiment [1] is more than 10 fold. In experiment [2], “CBD-fused laminin 511E8 fragment CBD-E8(αβγ)” displayed a concentration at which the binding activity reached saturation of 10 nM and a fold binding activity against the forms with a single CBD (monovalent forms) of 10 fold. Moreover, the fold binding activity against the monovalent forms in experiment [3] came out at 3 fold. In experiment [1], “CBD-fused laminin 311E8 fragment 311βγ (from UniProt Q16787 579-1364)” registered a fold binding activity against the form with a single CBD (311β) of more than 10 fold. In experiment [1], “CBD-fused laminin 221E8 fragment 221βγ (from UniProt P24043 1900-2722)” displayed a fold binding activity against the form with a single CBD (221β) of more than 10 fold. For “CBD-fused laminin 521E8 fragment 521βγ (from UniProt O15230 2534-3327)”, in experiment [1], the fold binding activity against the form with a single CBD (521β) is more than 10 fold.
